Reference: patent US20190071490A1, “Preventing Post-Ictal Headaches” (Beth Israel Deaconess Medical Center, Inc., priority 2017, published 2019)

Experiments:
[1] = test system: first-order trigeminovascular neurons (A-delta and C-type meningeal nociceptors); test: Single-unit recording of first-order neurons in the trigeminal ganglion evoked by CSD; assay type: in vivo, rat; details: male rats
Experimental: CSD was induced by pinprick 4 hours after drug/isotype infusion.

[2] = test system: naïve central trigeminovascular neurons (HT, WDR) in the spinal trigeminal nucleus; test: Single-unit recording of spontaneous and evoked activity of naïve trigeminovascular neurons; assay type: in vivo, rat; details: 30 mg/kg i.v.; for effect on spontaneous activity of naïve HT and WDR neurons: 1-4 hours post-treatment vs baseline
Excerpt: Experiments were approved by the Beth Israel Deaconess Medical Center and Harvard Medical School standing committees on animal care, and in accordance with the U.S. National Institutes of Health Guide for the Care and Use of Laboratory Animals. Male and female Sprague-Dawley rats (250-350 g) were anesthetized with urethane (0.9-1.2 g/kg i.p.). They were fitted with an intra-tracheal tube to allow artificial ventilation (0.1 L/min of O2), and an intra-femoral-vein cannula for later infusion of drugs. Rats were placed in a stereotaxic apparatus, and core temperature was kept at 37° C. using a heating blanket. End-tidal CO2 was continuously monitored and kept within physiological range (3.5-4.5 pCO2). Once stabilized, rats were paralyzed with rocuronium bromide (10 mg/ml, 1 ml/hr continuous intravenous infusion) and ventilated. For stimulation of the cranial dura later in the experiment, a 5×5-mm opening was carefully carved in the parietal and occipital bones in front and behind the lambda suture, directly above the left transverse sinus. The exposed dura was kept moist using a modified synthetic interstitial fluid (135 mM NaCl, 5 mM KCl, 1 mM MgCl2, 5 mM CaCl2), 10 mM glucose and 10 mM Hepes, pH 7.2). For single-unit recording in the spinal trigeminal nucleus, a segment of the spinal cord between the obex and C2 was uncovered from overlying tissues, stripped of the dura mater, and kept moist with mineral oil.
To record neuronal activity, a tungsten microelectrode (impedance 3-4 MΩ) was lowered repeatedly into the spinal trigeminal nucleus (STN) in search of central trigeminovascular neurons receiving convergent input from the dura and facial skin. Trigeminovascular neurons were first identified based on their responses to electrical stimulation of the dura. […] Dural receptive fields were mapped by indenting the dura (with the 4.19 g VFH monofilament) at points separated by 1 mm mediolaterally and rostrocaudally. Points at which dural indentation produced a response in ≥50% of the trials were considered inside the neurons receptive field. Cutaneous receptive fields were mapped by applying innocuous and noxious mechanical stimulation to all facial skin areas and the cornea. An area was considered outside the receptive field if no stimulus produced a response in ≥50% of the trials. Responses to mechanical stimulation of the skin were determined by applying brief (10 s) innocuous and noxious stimuli to the most sensitive portion of the cutaneous receptive field. Innocuous stimuli consisted of slowly passing a soft bristled brush across the cutaneous receptive field (one 5-s brush stroke from caudal to rostral and one 5-s brush stroke from rostral to caudal) and pressure applied with a loose arterial clip. Noxious stimuli consisted of pinch with a strong arterial clip (Palecek et al., 1992, J. Neurophysiol. 67:1562-1573; Dado et al., 1994, J. Neurophysiol. 71:981-1002; Burstein et al., 1998, J. Neurophysiol. 79:964-982). More intense or prolonged stimuli were not used to avoid inducing prolonged changes in spontaneous neuronal discharge or response properties. Responses to mechanical stimulation of the cornea consisted of gentle and slow brushing strokes with a thin paintbrush (about 10 hair-follicles). Two classes of neurons were thus identified: wide-dynamic-range (WDR) neurons (incrementally responsive to brush, pressure and pinch), and high-threshold (HT) neurons (unresponsive to brush). Real-time waveform discriminator was used to create and store a template for the action potential evoked in the neuron under study by electrical pulses on the dura; spikes of activity matching the template waveform were acquired and analyzed online and offline using Spike 2 software (CED, Cambridge, UK).
It was diluted in saline to a final dose of 30 mg/kg and administered intravenously (bolus injection, total volume 0.6-0.7 ml). […]

[3] = test system: central trigeminovascular neurons (medullary dorsal horn); test: Seizure (picrotoxin)-induced activation of trigeminovascular neurons, single-unit recording; assay type: in vivo; details: rat
Excerpt: Cortical electrodes were used to trace the magnitude, extent and progression of epileptiform seizures.
Single-unit recordings were obtained from neurons in the trigeminal ganglion and dorsal horn as described in previous studies (Burstein et al. (1998) J. Neurophysiol. 79: 964-82; Strassman and Levy (2006) J. Neurophysiol. 95: 1298-306; Strassman et al. (1996) Nature 384: 560-4; Zhang et al. (2010) J. Neurosci. 30: 8807-14; and Zhang et al. (2011) Ann. Neurol. 69: 855-65). Experiments were done in adult Sprague-Dawley rats (250 g to 350 g). Animals were anesthetized with urethane (1.2-1.5 g/kg), artificially ventilated with oxygen, and paralyzed. Body temperature was controlled, and end-tidal CO2 and oxygen saturation was monitored. For ganglion recordings, four separate craniotomies were made: over the contralateral cortex, to advance the microelectrode; over the ipsilateral parietal cortex, and the ipsilateral occipital cortex, for application of the picrotoxin and recording of electrocorticogram activity; and over the ipsilateral transverse sinus, for electrical and mechanical stimulation of dural afferents, and lidocaine application. For dorsal horn recording, the same craniotomies were made over the ipsilateral cortex and the ipsilateral transverse sinus, but no contralateral craniotomy was made. Instead, a laminectomy was made to expose the upper cervical spinal cord (C1-2) for microelectrode recording. In both the trigeminal ganglion and the dorsal horn recording experiments, the search stimulus for finding dura-sensitive neurons is single-shock electrical stimulation applied to the dura covering the transverse sinus.
Seizure was induced by application of picrotoxin to the surface of the cerebral cortex (10 μl, applied on a small piece of gelfoam, at a concentration of either 5 mM or 100 mM, for focal or generalized seizure, respectively). For verification of seizure induction, cortical activity was recorded with a glass micropipette (0.9% saline, ˜1 megohm, 7 μm tip) placed just below the surface of the cerebral cortex, at the parietal and the occipital site. […]

B1: G1: humanized monoclonal anti-CGRP antagonist antibody; heavy chain SEQ ID NO:11, light chain SEQ ID NO:12 (antibody)
heavy: EVQLVESGGGLVQPGGSLRLSCAASGFTFSNYWISWVRQAPGKGLEWVAEIRSESDASATHYAEAVKGRFTISRDNAKNSLYLQMNSLRAEDTAVYYCLAYFDYGLAIQNYWGQGTLVTVSSASTKGPSVFPLAPCSRSTSESTAALGCLVKDYFPEPVTVSWNSGALTSGVHTFPAVLQSSGLYSLSSVVTVPSSNFGTQTYTCNVDHKPSNTKVDKTVERKCCVECPPCPAPPVAGPSVFLFPPKPKDTLMISRTPEVTCVVVDVSHEDPEVQFNWYVDGVEVHNAKTKPREEQFNSTFRVVSVLTVVHQDWLNGKEYKCKVSNKGLPSSIEKTISKTKGQPREPQVYTLPPSREEMTKNQVSLTCLVKGFYPSDIAVEWESNGQPENNYKTTPPMLDSDGSFFLYSKLTVDKSRWQQGNVFSCSVMHEALHNHYTQKSLSLSPGK
light: EIVLTQSPATLSLSPGERATLSCKASKRVTTYVSWYQQKPGQAPRLLIYGASNRYLGIPARFSGSGSGTDFTLTISSLEPEDFAVYYCSQSYNYPYTFGQGTKLEIKRTVAAPSVFIFPPSDEQLKSGTASVVCLLNNFYPREAKVQWKVDNALQSGNSQESVTEQDSKDSTYSLSSTLTLSKADYEKHKVYACEVTHQGLSSPVTKSFNRGEC
For B1, the “activation of meningeal nociceptors by CSD (FIGS. 23A and 23B)” value [1] was “prevents the activation of most a-delta and some C-type meningeal nociceptors”, the “C-fibers activated by CSD” value ([1]; 30 mg/kg IV 4 hours before CSD) was 23% and the “a-delta fibers activated by CSD” value ([1]; 30 mg/kg IV 4 hours before CSD) was 14%. For the same molecule, the “neurons tested that were activated by CSD” value ([1]; 30 mg/kg IV 4 hours before CSD, all first-order neurons) was 20%, the “effect on spontaneous activity of naïve HT and WDR neurons” value ([2]; female rats) was “did not reduce the spontaneous activity of HT or WDR neurons” and the “decrease of firing of HT neurons in response to dural indentation” value ([2]; female rats, p=0.017) was 61%. The “effect on sensitivity to mechanical stimulation of the dura (dural indentation), HT and WDR neurons” value ([2]; male and female rats) was “reduced the sensitivity to mechanical stimulation of the dura in the HT but not the WDR neurons”, the “effect on responses to innocuous (brush, pressure) or noxious (pinch) mechanical stimulation of the skin or the cornea” value ([2]; male or female rats, HT or WDR neurons) was “did not alter the responses of HT or WDR neurons” and the “effect on spontaneous activity of naïve HT and WDR neurons” value ([2]; male rats) was “reduced the spontaneous activity of the HT but not the WDR neurons”. For the same molecule, the “decrease of firing of HT neurons in response to dural indentation” value ([2]; male rats, p=0.047) was 75%, the “decrease of spontaneous neuronal firing, HT neurons” value ([2]; male rats, within 3-4 hrs, p=0.040) was 90% and the “neurons activated by the seizure (number/total)” value ([3]; 30 mg/kg i.v. four hours before induction of seizure, medullary dorsal horn, untreated 28/30) was 2/13. For the same molecule, the “neurons activated by the seizure (percent)” value ([3]; 30 mg/kg i.v. four hours before induction of seizure, medullary dorsal horn, untreated 93%) was 15% and the “activation of central trigeminovascular neuron by seizure (FIG. 9)” value ([3]; 30 mg/kg intravenously four hours before induction of seizure) was “prevented the activation of a central trigeminovascular neuron but not the occurrence of a seizure”.
